Test results taken from publication PMC8372783.

How the values were obtained:
thrombin [1] = target: T1, thrombin (human, UniProt P00734;P00734 328-363;364-622); test: affinity probe capillary electrophoresis
thrombin [2] = target: T1, thrombin; test: affinity probe capillary electrophoresis; remark: listed apart in the source
thrombin [3] = target: T1, thrombin; test: fluorescence anisotropy
thrombin [4] = target: T1, thrombin; test: fluorescence anisotropy; remark: listed apart in the source
thrombin [5] = target: T1, thrombin; test: fluorescence anisotropy; remark: listed apart in the source
thrombin [6] = target: T1, thrombin; test: fluorescence anisotropy; remark: listed apart in the source
thrombin [7] = target: T1, thrombin; test: fluorescence anisotropy; remark: listed apart in the source
thrombin [8] = target: T1, thrombin; test: fluorescence anisotropy; remark: listed apart in the source
thrombin [9] = target: T1, thrombin; test: affinity probe capillary electrophoresis; remark: listed apart in the source

Row | Binder | apparent K (half saturation) (thrombin [1]) | apparent K (half saturation) (thrombin [2]) | apparent K (half saturation) (thrombin [3]) | apparent K (half saturation) (thrombin [4]) | apparent K (half saturation) (thrombin [5]) | apparent K (half saturation) (thrombin [6]) | apparent K (half saturation) (thrombin [7]) | apparent K (half saturation) (thrombin [8]) | Kd (thrombin [9])
1 | GGTTGGTGTGGTTGG (structured_DNA) [15mer Fl (FAM)] | 60.9 ± 5.3 nM | 49.2 ± 1.2 nM | – | – | – | – | – | – | –
2 | GGTTGGTGTGGTTGG (structured_DNA) [15mer, Texas Red] | – | – | 25 ± 1.5 nM | 29.7 ± 1.1 nM | 51.8 ± 2.9 nM | 30.4 ± 2.6 nM | 27.3 ± 1.6 nM | 23.7 ± 1.1 nM | 4.5 ± 1.4 nM
